Holding throughout (test): SPR (Biacore 8K), pMHC captured, Fab-scFv analyte
The target in experiment [1] is HLA-A*02:01 loaded with PRAME peptide S1R (human, Non-covalent three-chain complex; biotinylated for capture on the chip, site or tag of biotinylation not stated.). The protocol: (§1) Recombinantly produced hits in Fab-scFv format, as described in Example 4, were evaluated for their ability to bind HLA-A*02:01/PRAME antigen. Binding characterization was performed by surface plasmon resonance (SPR) using a Biacore™ 8k (Cytiva) device. Briefly, 3000 RU of Biotin CAPture reagent (Cytiva) was immobilized on a Series S Sensor Chip CAP (Cytiva) and the biotinylated ligand HLA-A*02:01/PRAME (SEQ ID NO: 68) was diluted in HPS-EP+ running buffer (TEKNOVA) and captured for 300 s at a flow rate of 2 μL/min at flow cell 2 resulting in a ligand capture level of >100 RU. Subsequently, at least three consecutive analyte injections were performed at suitable concentrations applying the single-cycle-kinetics mode at a flow rate of 30 μL/min with an association time of 90 s and the dissociation time set to >400 s. The chip surface was regenerated according to the manufacturer's instructions. After reference flow cell signal and blank injections subtraction, the data was fit to a 1:1 Langmuir binding model to determine the association rate constant kₐ and dissociation rate constant kd and calculate the equilibrium dissociation constant KD (kd/kₐ), also denoted as affinity, using the Biacore™ Insight Evaluation software.
(§2) The molecular recognition profile of monovalent (Fab-scFv) antigen binding molecules M3076 and M3287 for HLA-A*02:01/PRAME binding (equivalent bivalent (Fab-(scFv)₂) antigen binding molecules are M3167 and M3292, respectively) were determined by SPR measurements with HLA-A*02:01 complexes loaded with PRAME peptide or peptides containing a single amino acid substitution to alanine, arginine or aspartic acid. The kinetic parameters for each HLA-A*02:01 complex loaded with a peptide was determined by SPR, according to the previously described method in Example 5.

The target in experiment [2] is HLA-A*02:01 loaded with PRAME peptide L2R (human, Non-covalent three-chain complex; biotinylated for capture on the chip, site or tag of biotinylation not stated.). The protocol:
as §1, §2

For experiment [3], the target named is HLA-A*02:01 loaded with PRAME peptide L3R (human, Non-covalent three-chain complex; biotinylated for capture on the chip, site or tag of biotinylation not stated.). The protocol: as §1, §2
Experiment [4] deals with HLA-A*02:01 loaded with PRAME peptide L6R (human, Non-covalent three-chain complex; biotinylated for capture on the chip, site or tag of biotinylation not stated.). The protocol:
as §1, §2

The target of experiment [5] is T1, HLA-A*02:01/PRAME antigen (recombinant, … on HLA-A*02:01) (human, Complex biotinylated for SPR capture; site of biotin and any tag not stated, not in the letters.).
T1 construct: also called PRAME target; pMHC
The protocol:
as §1, §2

Experiment [6] has as its target HLA-A*02:01 loaded with PRAME peptide S1D (human, pMHC ligand was biotinylated for capture (Example 5); site or tag of biotinylation not disclosed). The protocol:
as §1, §2

Experiment [7] concerns the target HLA-A*02:01 loaded with PRAME peptide L2D (human, pMHC ligand was biotinylated for capture (Example 5); site or tag of biotinylation not disclosed). The protocol: as §1, §2
Experiment [8] addresses HLA-A*02:01 loaded with PRAME peptide L3D (human, pMHC ligand was biotinylated for capture (Example 5); site or tag of biotinylation not disclosed). The protocol:
as §1, §2

For experiment [9], the target named is HLA-A*02:01 loaded with PRAME peptide Q4D (human, pMHC ligand was biotinylated for capture (Example 5); site or tag of biotinylation not disclosed). The protocol:
as §1, §2

In experiment [10] the target is HLA-A*02:01 loaded with PRAME peptide H5D (human, pMHC ligand was biotinylated for capture (Example 5); site or tag of biotinylation not disclosed). The protocol: as §1, §2
The target in experiment [11] is HLA-A*02:01 loaded with PRAME peptide L6D (human, Complex was biotinylated for capture on the SPR chip; site or tag of biotinylation not disclosed and not in the letters.). The protocol: as §1, §2
Experiment [12] concerns the target HLA-A*02:01 loaded with PRAME peptide I7D (human, Complex was biotinylated for capture on the SPR chip; site or tag of biotinylation not disclosed and not in the letters.). The protocol: as §1, §2
The target in experiment [13] is HLA-A*02:01 loaded with PRAME peptide G8D (human, Complex was biotinylated for capture on the SPR chip; site or tag of biotinylation not disclosed and not in the letters.). The protocol: as §1, §2
The target of experiment [14] is HLA-A*02:01 loaded with PRAME peptide L9D (human, Complex was biotinylated for capture on the SPR chip; site or tag of biotinylation not disclosed and not in the letters.). The protocol:
as §1, §2

The Kd is the concentration at which binding is half-saturated.

Residue numbers refer to the chain shown, from its start.

B1: M3076 (bispecific antibody)
heavy: EVQLVESGGGLVQPGGSLRLSCAASGFTFSTYAMNWVRQAPGKGLEWVGRIRSKYNNYATYYADSVKGRFTISRDDSKNTLYLQMNSLRAEDTAVYYCVRHGNFGDSYVSWFAYWGQGTLVTVSSASTKGPSVFPLAPSSKSTSGGTAALGCLVKDYFPEPVTVSWNSGALTSGVHTFPAVLQSSGLYSLSSVVTVPSSSLGTQTYICNVNHKPSNTKVDKKVEPKSCGGGGSDIQMTQSPSSLSASVGDRVTITCRSSQSVYNNLLGWYQQKPGKAPKLLIYSASTLASGVPSRFSGSGSGTDFTLTISSLQPEDFATYYCQGTYYNGDWYYPFGCGTKVEIKGGGGSGGGGSGGGGSGGGGSQVQLVESGGGSVQPGRSLRLSCAASGFDFSTYGVSWVRQAPGKCLEWIGYIDPVYGSTHYADSVKGRFTISRDNSKNTLYLQMNSLRAEDTASYYCVRDLYAGSSGYYMIYSLWGQGTSVTVSS
light: QAVVTQEPSLTVSPGGTVTLTCGSSTGAVTTSNYANWVQQKPGKSPRGLIGGTNKRAPGVPARFSGSLLGGKAALTISGAQPEDEADYYCALWYSNHWVFGGGTKLTVLGQPKAAPSVTLFPPSSEELQANKATLVCLISDFYPGAVTVAWKADSSPVKAGVETTTPSKQSNNKYAASSYLSLTPEQWKSHRSYSCQVTHEGSTVEKTVAPTECS
notes: Humanized variant of M2638, monovalent Fab-scFv; bivalent equivalent is M3167
With B1, the Kd stood at 0.08 nM in experiment [1]; 0.04 nM in experiment [2]; 1 nM in [3]; 0.08 nM in experiment [5]; 0.06 nM in experiment [6]; 0.09 nM in experiment [8]. Moreover, the Kd in [9] was 0.34 nM; in [10] it was 0.44 nM; in experiment [14] it was 0.83 nM. Moreover, the binding result in [4], in [7], in [11], in experiment [12] and in experiment [13] was “no binding” in each case.

B2: M3287 (bispecific antibody)
heavy: B1 heavy with F317S, N328T, M473V
light: B1 light
notes: Humanized variant of M2638, monovalent Fab-scFv; bivalent equivalent is M3292
In the case of B2, the dissociation constant (Kd) in experiment [1] is 0.57 nM; in experiment [2], 0.31 nM; in experiment [3], 9.2 nM; in experiment [5] it was 0.57 nM; in experiment [6], 0.53 nM; in experiment [8], 0.63 nM. The Kd in experiment [9] came to 3.4 nM; in [10], 4.6 nM; in [14], 2.7 nM. The binding result in [4], in experiment [7], in experiment [11], in experiment [12] and in [13] was “no binding” each time.

(Values after US20250333514A1 (CDR LIFE, published 2025).)
